Experimental data taken from patent US20200040039A1 (FUJIFILM, published 2020).
Positions of bridges follow the written chain, without caps; N, C: chain ends. Non-standard residues stand in square brackets, D forms with d. thiazoline = not defined here

B1: Cyclic peptide a-5-1 (peptide)
peptide: CRSWACLWPAFLWY[3‑(6-cyanopyridin-2-yl)Ala]-NH2
modifications: bridge N-15 via thiazoline; cysteine pairing not given here; reading uncertain
notes: MS 1957.6 (M+H); Structure itself only in a drawing
B2: Cyclic peptide a-5-3 (peptide)
peptide: CFALLWPQFLPLAF[3‑(6-cyanopyridin-2-yl)Ala]-NH2
modifications: bridge N-15 via thiazoline; reading uncertain
notes: MS 1821.3 (M+H); Structure itself only in a drawing
B3: Cyclic peptide a-6-1 (peptide)
peptide: CEYCDPTFWPLFRR[3‑(5-cyanothiophen-3-yl)alanine]-NH2
modifications: bridge N-15 via thiazoline; cysteine pairing not given here; reading uncertain
notes: MS 1993.3 (M+H); Structure itself only in a drawing

Key:
[1] = target: T1, MCL-1 (amino acid 1-172 portion) with a His6 tag, MBP and a TEV protease recognition sequence on the N … (UniProt Q07820 1-172); experiment: SPR, Biacore T200, 25 C, Mcl-1 amine-coupled on CM5, peptide as analyte, equilibrium analysis; grade B = KD of 50 µmol/L or more
T1 construct: range 1-172; Expressed in E. coli BL21 (DE3) RIPL, purified on Ni-NTA, dialysed; tags are not reported as removed; Immobilised by amine coupling on a CM5 chip for SPR; A different construct (3xFLAG-tagged, His6/MBP cleaved) was used for panning only; also called target protein; not shown: His6 tag from the pET28a construct; no cleavage is described for this preparation
T1 sequence (Q07820 1-172): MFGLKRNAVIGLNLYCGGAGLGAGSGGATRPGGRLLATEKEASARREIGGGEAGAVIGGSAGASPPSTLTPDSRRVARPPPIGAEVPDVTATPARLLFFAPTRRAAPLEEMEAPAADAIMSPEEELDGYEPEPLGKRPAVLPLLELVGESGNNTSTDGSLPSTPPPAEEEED
Method: A buffer obtained by adding dimethylformamide (DMF) or dimethylsulfoxide (DMSO) to a final concentration of 1 vol % to HBS-EP+(manufactured by GE Healthcare Inc.) was used as a running buffer. Mcl-1 was immobilized on a Biacore Sensor Chip Series S Sensor Chip CM5 (manufactured by GE Healthcare Inc.) using an Amine Coupling Kit (manufactured by GE Healthcare Inc.). In order to measure the dissociation constant (KD), each synthetic peptide was added at multiple concentrations to obtain a sensorgram of binding to immobilized Mcl-1.
The analysis of the obtained sensorgram was carried out using T200 evaluation software (manufactured by GE Healthcare Inc.). Solvent correction to DMF or DMSO was carried out, and then the KD was determined by equilibrium value analysis using a sensorgram obtained by subtracting the sensorgram to a flow cell in which Mcl-1 is not immobilized.

[2] = target: T1, MCL-1 (amino acid 1-172 portion) with a …; experiment: SPR, Biacore T200, Mcl-1 immobilised on CM5, peptide as analyte, equilibrium analysis, as for Table 51; grade A = KD of less than 50 µmol/L

Binder	Kd [1] [µM]	Kd [2] [µM]
B1	≥ 50	–
B2	≥ 50	–
B3	–	< 50
